Results from patent publication US9994881B2, “Functionalized carboxylic acids and alcohols by reverse fatty acid oxidation in engineered microbes” (William Marsh Rice University, priority 2011, dated 2018).
Marks after values point to notes of the source that are not given here.

B1: TesB: E. coli thioesterase II (protein, UniProt P0AGG2 2-286, looked up)
Acyl-CoA thioesterase 2: SQALKNLLTLLNLEKIEEGLFRGQSEDLGLRQVFGGQVVGQALYAAKETVPEERLVHSFHSYFLRPGDSKKPIIYDVETLRDGNSFSARRVAAIQNGKPIFYMTASFQAPEAGFEHQKTMPSAPAPDGLPSETQIAQSLAHLLPPVLKDKFICDRPLEVRPVEFHNPLKGHVAEPHRQVWIRANGSVPDDLRVHQYLLGYASDLNFLPVALQPHGIGFLEPGIQIATIDHSMWFHRPFNLNEWLLYSVESTSASSARGFVRGEFYTQDGVLVASTVQEGVMRNHN
B2: TesA: E. coli multifunctional acyl-CoA thioesterase I and protease I and lysophospholipase L1 (protein, UniProt P0ADA1 27-208, looked up)
Thioesterase 1/protease …: ADTLLILGDSLSAGYRMSASAAWPALLNDKWQSKTSVVNASISGDTSQQGLARLPALLKQHQPRWVLVELGGNDGLRGFQPQQTEQTLRQILQDVKAANAEPLLMQIRLPANYGRRYNEAFSAIYPKLAKEFDVPLLPFFMEEVYLKPQWMQDDGIHPNRDAQPFIADWMAKQLQPLVNHDS
B3: YbgC: E. coli Acyl-CoA thioesterase (protein, UniProt P0A8Z3 1-134, looked up)
Acyl-CoA thioester hydrolase …: MNTTLFRWPVRVYYEDTDAGGVVYHASYVAFYERARTEMLRHHHFSQQALMAERVAFVVRKMTVEYYAPARLDDMLEIQTEITSMRGTSLVFTQRIVNAENTLLNEAEVLVVCVDPLKMKPRALPKSIVAEFKQ
B4: FadM: E. coli long-chain acyl-CoA thioesterase (protein, UniProt P77712 1-132, looked up)
Long-chain acyl-CoA …: MQTQIKVRGYHLDVYQHVNNARYLEFLEEARWDGLENSDSFQWMTAHNIAFVVVNININYRRPAVLSDLLTITSQLQQLNGKSGILSQVITLEPEGQVVADALITFVCIDLKTQKALALEGELREKLEQMVK
B5: YciA: E. coli acyl-CoA thioesterase (protein, UniProt P0A8Z0 1-132, looked up)
Acyl-CoA thioester hydrolase …: MSTTHNVPQGDLVLRTLAMPADTNANGDIFGGWLMSQMDIGGAILAKEIAHGRVVTVRVEGMTFLRPVAVGDVVCCYARCVQKGTTSVSINIEVWVKKVASEPIGQRYKATEALFKYVAVDPEGKPRALPVE
B6: YdiI: E. coli Acyl-CoA thioesterase (protein, UniProt P77781 1-136, looked up)
1,4-dihydroxy-2-naphthoyl-CoA …: MIWKRKITLEALNAMGEGNMVGFLDIRFEHIGDDTLEATMPVDSRTKQPFGLLHGGASVVLAESIGSVAGYLCTEGEQKVVGLEINANHVRSAREGRVRGVCKPLHLGSRHQVWQIEIFDEKGRLCCSSRLTTAIL

Columns and labels:
[1] = thioesterase activity (production of TNB at 412 nm); assay type: biochemical; conditions: expressed from pCA24N; for Specific activities of selected thioesterases on Acetoacetyl-CoA / Specific activities of selected thioesterases on Acetyl-CoA / Specific activities of selected thioesterases on Butyryl-CoA / Specific activities of selected thioesterases on Crotonyl-CoA / Specific activities of selected thioesterases on RS-3-Hydroxybutyryl-CoA: crude cell extract, 200 μM substrate; for Specific Activity: Table 1
Text: (§1) For AtoB and thioesterase characterization assays, the pCA24N-gene (-gfp) plasmids from the ASKA collection^44 were used. For expression of E. gracilis TER for kinetic characterization, the egTER gene was cloned into pTrcHis2A using the In-Fusion protocol (Clontech Laboratories, Inc., Mountain View, Calif.) following PCR amplification from the aforementioned codon-optimized egTER containing plasmid with the primer pair of F1pTH6hisEgter and R1pTH6hisEgter (Supplementary Table S3).
(§2) Cultures for enzymatic assays were grown overnight in 100 mL of LB media at 37° C. in 250 mL baffled flasks (Wheaton Industries, Inc., Millville, N.J.) in E. coli BL21 (DE3) cells induced with either 1 mM IPTG (pCA24N, pTrcHis2A) or 1 mM Arabinose (pUCBB-pBAD) at an OD600˜0.6, or expressed constitutively (pUCBB-ntH6). Reactions were monitored on either a Synergy HT plate reader (BioTek Instruments, Inc., Winooski, Vt.) at 25° C. (for reactions monitored at 300 nm or higher) or in a Biomate 5 Spectrophotometer (Thermo Scientific, Waltham, Mass.) for reactions at 263 nm.
(§3) For specific activity assays (reported in μmol substrate/mg protein/min) these supernatant fractions were utilized and protein concentration was established using the Bradford Reagent (Thermo Scientific, Waltham, Mass.) using BSA as the protein standard. Linearity was established for each reaction and the background non-enzymatic rate was subtracted to establish the activity.
For kinetic characterization, an appropriate amount of enzyme was established by checking linear range near predicted KM values. Then, the rates were measured for a range of substrates in order to establish kcat and KM. In the cases of FadB for the crotonase reaction and FadA in the “forward” thiolase reaction coupled with HBD, substrate saturation could not be established, as such, the kcat/KM for the reaction was determined by dividing the linear slope of Velocity vs. [Substrate] by the amount of enzyme used in the assays. For reactions that could be saturated, Velocity vs. [Substrate] was fitted by the EnzKIN Matlab module (mathworks.com/matlabcentral/fileexchange/26653) to establish Vmax and KM.
(§4) Thioesterase activity was monitored by following the production of TNB at 412 nm ([…])^30. Reactions were carried out in the presence of 100 mM Tris pH 7.5, 200 mM KCl, […] DTNB and 200 μM of the ‘-CoA’ substrate in a volume of 200 μL at 25° C.

[2] = as above; assay type: biochemical; conditions: crude cell extract; 200 μM substrate; expressed from pCA24N
Text: as §1, §2, §3, §4

Row | Molecule | Specific activities of selected thioesterases on Acetoacetyl-CoA [1] | Specific activities of selected thioesterases on Acetyl-CoA [1] | Specific activities of selected thioesterases on Butyryl-CoA [1] | Specific activities of selected thioesterases on Crotonyl-CoA [1] | Specific activities of selected thioesterases on RS-3-Hydroxybutyryl-CoA [1] | Specific activities of selected thioesterases on Decanyl-CoA [2] | Specific Activity ([1]; substrate Acetoacetyl-CoA) | Specific Activity ([1]; substrate Acetyl-CoA) | Specific Activity ([1]; substrate Butyryl-CoA) | Specific Activity ([1]; substrate Crotonyl-CoA) | Specific Activity ([1]; substrate RS-3-Hydroxybutyryl-CoA)
1 | B1 | 0.056 ± 0.001 μmol/mg protein/min | 0.030 ± 0.001 μmol/mg protein/min | 0.101 ± 0.002 μmol/mg protein/min | 0.010 ± 0.001 μmol/mg protein/min | 0.032 ± 0.002 μmol/mg protein/min | 0.6 ± 0.1 μmol/mg protein/min | – | – | – | – | –
2 | B2 | 0.044 ± 0.005 μmol/mg protein/min | 0.036 ± 0.002 μmol/mg protein/min | 0.049 ± 0.002 μmol/mg protein/min | 0.007 ± 0.003 μmol/mg protein/min | 0.02 ± 0.01 μmol/mg protein/min | 0.47 ± 0.04 μmol/mg protein/min | – | – | – | – | –
3 | B3 | 0.065 ± 0.002 μmol/mg protein/min | 0.036 ± 0.002 μmol/mg protein/min | 0.045 ± 0.007 μmol/mg protein/min | 0.006 ± 0.001 μmol/mg protein/min | 0.016 ± 0.004 μmol/mg protein/min | 0.06 ± 0.02 μmol/mg protein/min | – | – | – | – | –
4 | B4 | 0.042 ± 0.004 μmol/mg protein/min | 0.0331 ± 0.0006 μmol/mg protein/min | 0.027 ± 0.001 μmol/mg protein/min | 0.0017 ± 0.0003 μmol/mg protein/min | 0.009 ± 0.002 μmol/mg protein/min | 0.034 ± 0.003 μmol/mg protein/min | – | – | – | – | –
5 | B5 | 0.672 ± 0.007 μmol/mg protein/min | 0.222 ± 0.007 μmol/mg protein/min | 2.9 ± 0.2 μmol/mg protein/min | 0.27 ± 0.03 μmol/mg protein/min | 0.441 ± 0.009 μmol/mg protein/min | 3.7 ± 0.3 μmol/mg protein/min | 0.672 ± 0.007^b μmol/mg/min | 0.222 ± 0.007^b μmol/mg/min | 2.9 ± 0.2^b μmol/mg/min | 0.27 ± 0.03^b μmol/mg/min | 0.441 ± 0.009^b μmol/mg/min
6 | B6 | 0.047 ± 0.001 μmol/mg protein/min | 0.036 ± 0.003 μmol/mg protein/min | 0.0917 ± 0.0007 μmol/mg protein/min | 0.078 ± 0.005 μmol/mg protein/min | 0.012 ± 0.002 μmol/mg protein/min | 0.18 ± 0.04 μmol/mg protein/min | – | – | – | – | –
